B1: L. major bsat: Leishmania major broad substrate aminotransferase (bsat, SEQ ID NOS: 7 and 8) (protein)
chain: MSMQAAMTTAERWQKIQAQAPDVIFDLAKRAAAAKGPKANLVIGAYRDEQGRPYPLRVVRKAEQLLLDMNLDYEYLPISGYQPFIDEAVKIIYGNTVELENLVAVQTLSGTGAVSLGAKLLTRVFDAETTPIYLSDPTWPNHYGVVKAAGWKNICTYAYYDPKTVSLNFEGMKKDILAAPDGSVFILHQCAHNPTGVDPSQEQWNEIASLMLAKHHQVFFDSAYQGYASGSLDTDAYAARLFARRGIEVLLAQSFSKNMGLYSERAGTLSLLLKDKTKRADVKSVMDSLIREEYTCPPAHGARLAHLILSNNELRKEWEAELSAMAERIRTMRRTVYDELLRLQTPGSWEHVINQIGMFSFLGLSKAQCEYCQNHNIFITVSGRANMAGLTHETALMLAQTINDAVRNVNRE
modifications: Leishmania major
B2: S. meliloti tatA: Sinorhizobium meliloti tyrosine aminotransferase (tatA, SEQ ID NOS: 1 and 2) (protein, listed as Sinorhizobium meliloti)
chain: MFDALARQADDPLLFLIGLFRKDERPGKVDLGVGVYRDETGRTPIFRAVKAAEKRLLETQDSKAYIGPEGDLVFLDRLWELVGGDTIERSHVAGVQTPGGSGALRLAADLIARMGGRGIWLGLPSWPNHAPIFKAAGLDIATYDFFDIPSQSVIFDNLVSALEGAASGDAVLLHASCHNPTGGVLSEAQWMEIAALVAERGLLPLVDLAYQGFGRGLDQDVAGLRHLLGVVPEALVAVSCSKSFGLYRERAGAIFARTSSTASADRVRSNLAGLARTSYSMPPDHGAAVVRTILDDPELRRDWTEELETMRLRMTGLRRSLAEGLRTRWQSLGAVADQEGMFSMLPLSEAEVMRLRTEHGIYMPASGRINIAGLKTAEAAEIAGKFTSL
B3: E. coli KHG: 4-hydroxy-2-oxoglutarate glyoxylate lyase (KHG aldolase) from E. coli (protein, UniProt P0A955 1-213, looked up)
KHG/KDPG aldolase: MKNWKTSAESILTTGPVVPVIVVKKLEHAVPMAKALVAGGVRVLEVTLRTECAVDAIRAIAKEVPEAIVGAGTVLNPQQLAEVTEAGAQFAISPGLTEPLLKAATEGTIPLIPGISTVSELMLGMDYGLKEFKFFPAEANGGVKALQAIAGPFSQVRFCPTGGISPANYRDYLALKSVLCIGGSWLVPADALEAGDYDRITKLAREAVEGAKL
B4: B. subtilis D-aminotransf.: Bacillus subtilis D-alanine aminotransferase (dat) (protein, UniProt O07597 1-282, looked up)
D-alanine aminotransferase: MKVLVNGRLIGRSEASIDLEDRGYQFGDGIYEVIRVYKGVLFGLREHAERFFRSAAEIGISLPFSIEDLEWDLQKLVQENAVSEGAVYIQTTRGVAPRKHQYEAGLEPQTTAYTFTVKKPEQEQAYGVAAITDEDLRWLRCDIKSLNLLYNVMTKQRAYEAGAFEAILLRDGVVTEGTSSNVYAVINGTVRTHPANRLILNGITRMNILGLIEKNGIKLDETPVSEEELKQAEEIFISSTTAEIIPVVTLDGQSIGSGKPGPVTKQLQAAFQESIQQAASIS

Experiments:
Type in all cases: biochemical
[1] = tryptophan aminotransferase activity, production of indole-pyruvic acid; conditions: for Specific Activity: 5 mM L-tryptophan, 30 minutes at 30° C.; for tryptophan aminotransferase activity (in words): recombinant clones expressed in E. coli
Procedure: (§1) Cell extracts were analyzed by SDS-PAGE, and assayed for tryptophan aminotransferase activity by following production of indole-pyruvic acid using the following protocol. One mL reactions were carried out in 50 mM sodium tetraborate (pH 8.5), 0.5 mM EDTA, 0.5 mM sodium arsenate, 50 μM pyridoxal phosphate, 5 mM α-ketoglutarate, and 5 mM L-tryptophan. The reactions were initiated by the addition of cell free extracts or purified enzyme and were incubated 30 minutes at 30° C. 20% TCA (200 μL) was added to stop the reaction, and the precipitated protein was removed by centrifugation. The absorbance at 327 nm was measured and compared to a standard curve of freshly prepared indole-3-pyruvate in the assay buffer. Control reactions without the substrate tryptophan or using cell-free extracts from clones transformed with pET30a alone were also performed.
Due to background from the native E. coli aminotransferases in cell extracts, the recombinant fusion proteins each containing an aminotransferase protein fused to the pET30 amino terminal HIS6-Tag/S-Tag (6×HIS tag disclosed as SEQ ID NO: 90) were purified using immobilized metal affinity chromatography with His-Bind cartridges following manufacturer's protocols (Novagen, Madison, Wis.). The HIS6-Tag sequence (SEQ ID NO: 90) of the fusion proteins binds to the divalent Ni^2+ cations immobilized on IDA-based His-Bind resin. The eluent fractions were desalted on PD-10 (Amersham Biosciences, Piscataway, N.J.) columns and eluted in 50 mM Tris, pH 7.0. Purified proteins were analyzed by SDS-PAGE and assayed for aminotransferase activity.
(§2) Table 1 lists the specific activities measured in micrograms of indole-3-pyruvate (I3P) formed per milligram protein per minute. […] In these cases a ‘>’ precedes the specific activity number.

[2] = monatin aminotransferase assay (loss of monatin by LC/MS)
Procedure: Transamination activity. Monatin aminotransferase assays were conducted with the aspartate aminotransferase (AspC) from E. coli, the tyrosine aminotransferase (TyrB) from E. coli, the broad substrate aminotransferase (BSAT) from L. major, and the two commercially available porcine glutamate-oxaloacetate aminotransferases described in Example 1. Both oxaloacetate and alpha-ketoglutarate were tested as the amino acceptor. The assay mixture contained (in 0.5 mL) 50 mM Tris-HCl, pH 8.0, 0.05 mM PLP, 5 mM amino acceptor, 5 mM monatin, and 25 μg of aminotransferase. The assays were incubated at 30° C. for 30 minutes, and the reactions were stopped by addition of 0.5 mL isopropyl alcohol. The loss of monatin was monitored by LC/MS (Example 6). […] The relative activity with oxaloacetate was: BSAT>AspC>porcine type IIa>porcine type I=TyrB. The relative activity with alpha-ketoglutarate was: BSAT>AspC>porcine type I>porcine type IIa>TyrB.

[3] = in vitro monatin production with aldolase and aminotransferase; conditions: 30 μg/mL KHG enzyme, 50 mM Tris pH 8.3, saturating tryptophan, one hour
[4] = aminotransferase activity using D-tryptophan as substrate; conditions: purified (P)
Procedure: as §1, with “One mL reactions were carried out in 50 mM sodium tetraborate (pH 8.5), 0.5 mM EDTA, 0.5 mM sodium arsenate, 50 μM pyridoxal phosphate, 5 mM α-ketoglutarate, and 5 mM L-tryptophan.” left out
as §2

Molecule | Specific Activity ([1]; cell extracts (CE)) [μg I3P/mg protein/min] | Specific Activity ([1]; purified (P)) [μg I3P/mg protein/min] | tryptophan aminotransferase activity (in words) [1] | monatin transamination activity (in words) ([2]; oxaloacetate as the amino acceptor, 5 mM monatin, 25 μg aminotransferase, 30° C. 30 minutes) | conversion of monatin to MP (in words) ([2]; similar assays, conditions tested) | monatin produced [3] [ng/mL] | Specific Activity [4] [μg I3P/mg protein/min]
B1 | >49.3 | >4280 | significant levels of tryptophan aminotransferase activity | highest amount of activity |  |  | 
B2 | >28.6 | >931 | significant levels of tryptophan aminotransferase activity |  | did not appear to detectably convert monatin to MP |  | 
B3 |  |  |  |  |  | 3000 | 
B4 |  |  |  |  |  |  | 2.7
